Values of other authors in article PMC5179943.

Target: LRP2/Megalin (Homo sapiens) (UniProt P98164)
Assay: solid phase binding assay

Sequence of UniProt P98164 (P98164 26-4423): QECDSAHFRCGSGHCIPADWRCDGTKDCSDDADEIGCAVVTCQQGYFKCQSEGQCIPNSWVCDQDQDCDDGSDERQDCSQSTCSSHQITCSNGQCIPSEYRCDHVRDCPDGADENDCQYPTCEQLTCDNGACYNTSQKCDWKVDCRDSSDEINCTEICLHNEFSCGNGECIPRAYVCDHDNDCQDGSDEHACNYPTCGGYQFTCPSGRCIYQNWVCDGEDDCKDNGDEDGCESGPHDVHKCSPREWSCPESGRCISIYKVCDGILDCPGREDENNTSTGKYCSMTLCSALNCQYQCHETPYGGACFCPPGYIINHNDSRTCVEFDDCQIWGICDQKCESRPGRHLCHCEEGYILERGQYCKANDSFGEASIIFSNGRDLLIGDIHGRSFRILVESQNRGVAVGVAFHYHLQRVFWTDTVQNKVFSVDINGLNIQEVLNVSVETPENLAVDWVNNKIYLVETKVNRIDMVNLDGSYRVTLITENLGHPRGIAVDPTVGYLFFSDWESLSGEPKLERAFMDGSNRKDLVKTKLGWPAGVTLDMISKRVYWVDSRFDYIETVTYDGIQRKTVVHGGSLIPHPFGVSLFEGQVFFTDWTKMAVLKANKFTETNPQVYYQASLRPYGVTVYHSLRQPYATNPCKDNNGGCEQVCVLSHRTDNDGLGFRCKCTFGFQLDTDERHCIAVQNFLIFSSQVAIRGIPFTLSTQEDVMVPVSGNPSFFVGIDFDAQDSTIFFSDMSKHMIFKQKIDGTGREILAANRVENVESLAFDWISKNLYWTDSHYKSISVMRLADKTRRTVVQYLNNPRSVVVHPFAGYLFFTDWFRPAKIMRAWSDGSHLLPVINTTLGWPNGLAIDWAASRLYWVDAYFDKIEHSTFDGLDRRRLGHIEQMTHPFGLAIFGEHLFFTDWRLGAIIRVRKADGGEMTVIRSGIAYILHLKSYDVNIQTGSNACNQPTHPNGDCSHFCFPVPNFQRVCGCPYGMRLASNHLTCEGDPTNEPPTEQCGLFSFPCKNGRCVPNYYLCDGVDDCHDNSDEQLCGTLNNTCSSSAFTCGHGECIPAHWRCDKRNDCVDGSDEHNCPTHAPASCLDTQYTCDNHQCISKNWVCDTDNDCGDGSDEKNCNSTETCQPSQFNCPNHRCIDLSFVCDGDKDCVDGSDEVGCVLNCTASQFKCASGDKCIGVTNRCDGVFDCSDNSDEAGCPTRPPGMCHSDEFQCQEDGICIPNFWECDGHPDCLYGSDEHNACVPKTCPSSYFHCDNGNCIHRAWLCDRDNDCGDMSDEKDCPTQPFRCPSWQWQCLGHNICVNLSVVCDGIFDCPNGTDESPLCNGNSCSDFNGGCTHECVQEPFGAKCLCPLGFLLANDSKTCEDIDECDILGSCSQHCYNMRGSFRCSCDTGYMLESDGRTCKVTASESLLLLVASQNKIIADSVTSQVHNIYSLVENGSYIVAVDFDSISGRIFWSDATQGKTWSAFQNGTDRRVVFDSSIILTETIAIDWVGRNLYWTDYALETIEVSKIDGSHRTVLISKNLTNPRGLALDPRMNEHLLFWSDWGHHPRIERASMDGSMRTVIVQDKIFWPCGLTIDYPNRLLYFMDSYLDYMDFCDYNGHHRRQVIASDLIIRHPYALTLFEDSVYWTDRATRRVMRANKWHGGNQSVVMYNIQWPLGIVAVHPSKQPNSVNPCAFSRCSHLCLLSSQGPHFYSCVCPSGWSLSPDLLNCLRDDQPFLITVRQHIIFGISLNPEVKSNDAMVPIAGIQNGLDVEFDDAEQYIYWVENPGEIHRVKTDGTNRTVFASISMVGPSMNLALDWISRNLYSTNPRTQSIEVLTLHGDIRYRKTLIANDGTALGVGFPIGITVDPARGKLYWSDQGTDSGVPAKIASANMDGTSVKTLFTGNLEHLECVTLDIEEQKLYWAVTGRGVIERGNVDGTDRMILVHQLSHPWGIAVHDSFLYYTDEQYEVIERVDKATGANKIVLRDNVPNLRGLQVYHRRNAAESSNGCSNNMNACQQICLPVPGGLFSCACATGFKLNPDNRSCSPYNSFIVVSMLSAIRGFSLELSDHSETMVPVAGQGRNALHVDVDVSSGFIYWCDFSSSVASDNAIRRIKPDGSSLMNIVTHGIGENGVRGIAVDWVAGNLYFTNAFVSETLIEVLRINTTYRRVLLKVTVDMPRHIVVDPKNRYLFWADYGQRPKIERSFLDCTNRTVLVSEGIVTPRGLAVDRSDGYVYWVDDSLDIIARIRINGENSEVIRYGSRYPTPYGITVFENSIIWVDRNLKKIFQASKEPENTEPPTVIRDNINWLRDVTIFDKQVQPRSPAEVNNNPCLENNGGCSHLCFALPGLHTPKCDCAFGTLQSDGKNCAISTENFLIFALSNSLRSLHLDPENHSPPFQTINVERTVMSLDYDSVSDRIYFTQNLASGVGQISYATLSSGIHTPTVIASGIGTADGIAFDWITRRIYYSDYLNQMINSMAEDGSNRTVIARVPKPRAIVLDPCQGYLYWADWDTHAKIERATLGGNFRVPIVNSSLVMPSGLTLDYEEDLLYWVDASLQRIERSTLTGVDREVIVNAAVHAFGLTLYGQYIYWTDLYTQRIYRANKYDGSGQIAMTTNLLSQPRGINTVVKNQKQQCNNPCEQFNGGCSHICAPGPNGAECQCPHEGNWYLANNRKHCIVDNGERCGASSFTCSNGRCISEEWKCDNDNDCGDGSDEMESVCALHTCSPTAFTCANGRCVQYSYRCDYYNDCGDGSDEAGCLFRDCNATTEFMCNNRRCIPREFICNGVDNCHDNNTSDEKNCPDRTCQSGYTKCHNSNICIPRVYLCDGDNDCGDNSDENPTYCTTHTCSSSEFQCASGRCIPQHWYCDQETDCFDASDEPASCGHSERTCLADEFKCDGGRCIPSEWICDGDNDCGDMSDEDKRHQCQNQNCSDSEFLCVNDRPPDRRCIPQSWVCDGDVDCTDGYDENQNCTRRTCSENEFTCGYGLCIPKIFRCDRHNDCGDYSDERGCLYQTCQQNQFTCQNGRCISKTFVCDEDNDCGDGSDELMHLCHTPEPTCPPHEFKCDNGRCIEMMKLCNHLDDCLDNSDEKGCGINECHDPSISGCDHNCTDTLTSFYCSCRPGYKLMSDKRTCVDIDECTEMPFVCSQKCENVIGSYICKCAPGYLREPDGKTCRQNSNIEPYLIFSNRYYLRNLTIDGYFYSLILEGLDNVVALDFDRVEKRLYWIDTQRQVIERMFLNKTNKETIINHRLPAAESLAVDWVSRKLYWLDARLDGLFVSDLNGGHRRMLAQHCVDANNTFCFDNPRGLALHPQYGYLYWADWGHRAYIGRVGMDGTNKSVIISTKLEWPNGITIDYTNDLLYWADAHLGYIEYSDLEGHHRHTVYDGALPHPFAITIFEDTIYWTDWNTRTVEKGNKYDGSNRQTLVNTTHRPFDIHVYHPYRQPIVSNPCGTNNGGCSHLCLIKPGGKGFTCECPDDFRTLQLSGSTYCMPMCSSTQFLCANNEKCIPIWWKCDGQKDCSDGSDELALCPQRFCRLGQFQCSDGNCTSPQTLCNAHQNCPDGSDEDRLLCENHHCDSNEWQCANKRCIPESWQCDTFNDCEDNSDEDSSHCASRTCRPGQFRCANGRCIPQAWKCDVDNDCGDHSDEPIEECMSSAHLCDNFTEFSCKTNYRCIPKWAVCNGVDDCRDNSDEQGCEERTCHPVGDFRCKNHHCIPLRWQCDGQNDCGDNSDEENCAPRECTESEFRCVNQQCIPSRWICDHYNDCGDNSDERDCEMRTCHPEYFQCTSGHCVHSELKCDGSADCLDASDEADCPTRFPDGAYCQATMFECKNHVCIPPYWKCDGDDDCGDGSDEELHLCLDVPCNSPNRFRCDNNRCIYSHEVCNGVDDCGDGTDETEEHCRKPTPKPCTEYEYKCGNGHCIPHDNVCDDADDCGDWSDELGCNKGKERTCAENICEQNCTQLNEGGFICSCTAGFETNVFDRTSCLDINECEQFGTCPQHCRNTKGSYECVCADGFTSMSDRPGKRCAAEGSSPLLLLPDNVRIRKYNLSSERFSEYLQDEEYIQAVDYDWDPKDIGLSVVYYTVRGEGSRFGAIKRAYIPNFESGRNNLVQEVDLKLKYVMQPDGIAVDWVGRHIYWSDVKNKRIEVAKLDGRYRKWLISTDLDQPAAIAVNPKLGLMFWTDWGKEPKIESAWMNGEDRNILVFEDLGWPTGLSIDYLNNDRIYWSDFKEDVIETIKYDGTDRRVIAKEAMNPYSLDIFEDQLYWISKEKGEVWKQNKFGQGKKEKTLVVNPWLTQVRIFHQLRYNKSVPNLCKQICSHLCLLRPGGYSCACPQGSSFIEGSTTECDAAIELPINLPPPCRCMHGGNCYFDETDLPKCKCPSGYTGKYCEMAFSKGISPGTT

- Kd: 14.2 nM
Substance: Clusterin (from UniProt P10909)
